Assay results as given in PMC5359625, “The Interrelationship between Abscisic Acid and Reactive Oxygen Species Plays a Key Role in Barley Seed Dormancy and Germination”.

T1: GST-HvABI5 (Hordeum vulgare, UniProt Q8GTR6 1-353)
T1 sequence: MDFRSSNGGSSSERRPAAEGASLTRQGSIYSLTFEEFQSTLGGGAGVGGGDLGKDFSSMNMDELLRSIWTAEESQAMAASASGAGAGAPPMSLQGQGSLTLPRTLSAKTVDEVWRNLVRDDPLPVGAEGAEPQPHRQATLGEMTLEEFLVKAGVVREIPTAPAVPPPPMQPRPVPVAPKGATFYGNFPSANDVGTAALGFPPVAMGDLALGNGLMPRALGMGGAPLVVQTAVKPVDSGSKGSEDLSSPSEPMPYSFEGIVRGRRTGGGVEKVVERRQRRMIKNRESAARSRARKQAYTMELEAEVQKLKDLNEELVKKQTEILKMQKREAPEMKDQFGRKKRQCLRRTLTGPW

B1: HvCAT2-probe (HvCAT2 promoter, ABRE) (dsDNA)
DNA 1: CACACACACGCACTACGTTCCGAGCATTGCGTCGCGGTGGGTGAG
DNA 2: CTCACCCACCGCGACGCAATGCTCGGAACGTAGTGCGTGTGTGTG
B2: unlabeled HvCAT2 probe competitor (dsDNA)
DNA 1: B1 DNA 1
DNA 2: B1 DNA 2

How the values were obtained:
GST-HvABI5 [1] = biological target: T1, GST-HvABI5; test: EMSA; DIG Gel Shift Kit 2nd Generation (Roche), manufacturer's conditions; buffer, salt, pH and temperature not stated; settings: protein: recombinant; tags: N-terminal GST (pGEX); chain copies: 2; label: DIG; blunt
GST-HvABI5 [2] = biological target: T1, GST-HvABI5; test: competition; 100x molar excess unlabeled competitor vs DIG-labeled N1; DIG Gel Shift Kit 2nd Generation (Roche), manufacturer's conditions; buffer, salt, pH and temperature not stated; settings: protein: recombinant; tags: N-terminal GST (pGEX); chain copies: 2; label: none; blunt

Row | Binder | binding result (GST-HvABI5 [1]) | binding result (GST-HvABI5 [2])
1 | B1 | binds | –
2 | B2 | – | binds
